We go through one molecule from paper PMC3834811.

The target in this series is AtWRKY50 DBD_K26Q (Arabidopsis thaliana, UniProt Q8VWQ5 =M+99-173, K123Q;internal_change). The experiment in a line: DPI-ELISA.

B1: W2 (dsDNA)
DNA 1: AAATTATTCAGCCATCAAAAGTTGACCAATAAT
DNA 2: ATTATTGGTCAACTTTTGATGGCTGAATAATTT
On to B1, for which the binding result is “binds”.
